From patent US20240109967A1
Where “and” joins values, the source holds several entries; their conditions need not be identical. Identical values can stand only once. Like-named read-outs stand apart in the source and are kept apart here.

How the values were obtained:
[1] = target: feline CTLA-4 in feline CD5+ leucocytes (feline) (UniProt Q9XTA1); assay: flow cytometry, feline PBMC, Surface labeling, anti-HA secondary alone, gated Lymphocytes>Single cells>Live>CD5+
[2] = target: full length canine CTLA-4 on cells (KTδ32.cCTLA-4 cells; canine T cells and regulatory T cells) (canine) (UniProt Q9XSI1)
[3] = target: full length canine CTLA-4 on cells (KTδ32.cCTLA-4 cells; canine T cells and regulatory T cells) (canine) (UniProt Q9XSI1); remark: listed apart in the source
[4] = target: full length canine CTLA-4 on cells (KTδ32.cCTLA-4 cells; canine T cells and regulatory T cells) (canine) (UniProt Q9XSI1); remark: listed apart in the source
[5] = target: feline CTLA-4 in feline CD5+ leucocytes (feline) (UniProt Q9XTA1)
[6] = target: feline CTLA-4 in feline CD5+ leucocytes (feline) (UniProt Q9XTA1); remark: listed apart in the source

% of gated cells in the CTLA4 gate [1] [%] | Substance | % of cells in the CTLA4(HA.APC) gate [2] | % of gated cells in Q5 (CTLA4+ CD4-) [3] | % of gated cells in Q6 (CTLA4+ CD4+) [3] | % of gated cells in the CTLA4 gate [4] | % of gated cells in the CTLA4 gate [5] [%] | % of gated cells in the CTLA4 gate [6] [%]
3.8 | 2nd only (anti-HA secondary alone) |  |  |  |  |  | 
 | irrelevant MERS mAb (antibody) | 4.23% and 1.9% | 0.014% and 4.28% and 0.42% | 0.72% and 5.32% and 0.68% | 8.33% and 0% | 0.5 | 0.13
